Patent US20120328512A1 (BRACCO IMAGING S P A, published 2012)
Bridge positions count the residues as written; N and C are the ends. Square brackets hold non-standard residues; d marks the D form. * marks the point of attachment. αGalNAc = CC(=O)N[C@@H]1[C@@H](O)[C@@H](O)[C@@H](CO)O[C@@H]1*; Phe(3,4-F2) = N[C@@H](Cc1ccc(F)c(F)c1)C(=O)O; Thf2ca = tetrahydrofuran-2-carboxylic acid; Hyp = O=C(O)[C@@H]1C[C@@H](O)CN1; Cha = N[C@@H](CC1CCCCC1)C(=O)O; CF5 = 5-carboxyfluorescein; AEEA = NCCOCCOCC(=O)O

T1: DDE
T1 chain 1: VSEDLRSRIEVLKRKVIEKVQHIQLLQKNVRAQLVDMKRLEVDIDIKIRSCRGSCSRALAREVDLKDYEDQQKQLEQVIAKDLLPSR
T1 chain 2: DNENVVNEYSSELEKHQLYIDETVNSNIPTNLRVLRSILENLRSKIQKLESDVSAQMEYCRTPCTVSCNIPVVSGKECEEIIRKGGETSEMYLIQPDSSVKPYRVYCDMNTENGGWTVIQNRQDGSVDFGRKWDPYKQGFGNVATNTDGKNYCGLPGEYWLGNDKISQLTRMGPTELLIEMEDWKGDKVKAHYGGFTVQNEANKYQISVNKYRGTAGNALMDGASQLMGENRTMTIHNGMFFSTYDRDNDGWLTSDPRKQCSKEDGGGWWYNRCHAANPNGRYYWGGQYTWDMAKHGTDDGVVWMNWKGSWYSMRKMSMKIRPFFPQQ
T1 chain 3: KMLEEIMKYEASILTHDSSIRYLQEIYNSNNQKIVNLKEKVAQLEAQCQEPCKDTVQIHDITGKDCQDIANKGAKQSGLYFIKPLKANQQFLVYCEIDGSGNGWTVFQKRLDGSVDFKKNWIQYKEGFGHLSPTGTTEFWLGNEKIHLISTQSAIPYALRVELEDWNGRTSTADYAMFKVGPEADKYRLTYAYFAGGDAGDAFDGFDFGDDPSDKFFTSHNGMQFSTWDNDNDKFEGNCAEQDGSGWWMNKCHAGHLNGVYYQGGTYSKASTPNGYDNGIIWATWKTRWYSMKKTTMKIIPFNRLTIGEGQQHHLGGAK
T1 chain 4: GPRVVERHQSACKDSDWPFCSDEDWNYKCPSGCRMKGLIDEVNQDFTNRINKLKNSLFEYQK
T1 chain 5: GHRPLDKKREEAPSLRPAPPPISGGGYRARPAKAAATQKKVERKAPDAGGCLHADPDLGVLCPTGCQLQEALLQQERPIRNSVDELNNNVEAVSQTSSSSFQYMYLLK
T1 chain 6: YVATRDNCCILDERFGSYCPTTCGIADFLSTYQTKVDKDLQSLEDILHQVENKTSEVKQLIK

B1: Seq027-P (peptide)
peptide: Ac-S(αGalNAc)WQPCPWESWTFCWDPGGGK-NH2
modifications: disulfide 5-13
B2: Seq021-P (peptide)
peptide: H-GWQPCPWESWTFCWDPGGGK-NH2
modifications: disulfide 5-13
B3: Seq028-P (peptide)
peptide: Thf2ca-WQPCPWESWTFCWDPGGGK-NH2
modifications: disulfide 4-12
B4: Seq020-P (peptide)
peptide: Ac-WQPCPWESWT[Phe(3,4-F2)]CWDPGGGK-NH2
modifications: disulfide 4-12
B5: Seq025-CF5 (peptide)
peptide: Ac-KKGWQPCPWESWTFCWDPGGGK(CF5)-NH2
modifications: disulfide 7-15
B6: Seq026-CF5 (peptide)
peptide: Ac-KGKGKGWQPCPWESWTFCWDPGGGK(CF5)-NH2
modifications: disulfide 10-18
B7: Seq045-CF5 (peptide)
peptide: Ac-SGSG[AEEA]WQPCPAESWTFCWDPGGGK(CF5)-NH2
modifications: disulfide 9-17
B8: Seq040-CF5 (peptide)
peptide: Ac-SGSGSGSGWQPCPAESWTFCWDPGGGK(CF5)-NH2
modifications: disulfide 12-20
B9: Seq034-CF5 (peptide)
peptide: Ac-GPPGWQPCPAESWTFCWDPGGGK(CF5)-NH2
modifications: disulfide 8-16
B10: Seq035-CF5 (peptide)
peptide: Ac-GGRGWQPCPAESWTFCWDPGGGK(CF5)-NH2
modifications: disulfide 8-16
B11: Seq042-CF5 (peptide)
peptide: Ac-WQPCPAESWT[Cha]CWDPGGGK(CF5)-NH2
modifications: disulfide 4-12
notes: also called Ac-WQPC*PAESWT-Cha-C*WDPGGGK(CF5)-NH2
B12: Seq046-CF5 (peptide)
peptide: Ac-RRGGWQPCPAESWTFCWDPGGGK(CF5)-NH2
modifications: disulfide 8-16
B13: Seq023-P (peptide)
peptide: H-RWQPCPWESWTFCWDPGGGK-NH2
modifications: disulfide 5-13
B14: Seq026-P (peptide)
peptide: Ac-KGKGKGWQPCPWESWTFCWDPGGGK-NH2
modifications: disulfide 10-18
B15: Seq029-P (peptide)
peptide: Ac-RRGGWQPCPWESWTFCWDPGGGK-NH2
modifications: disulfide 8-16
SMILES: CC(=O)N[C@@H](CCCNC(=N)N)C(=O)N[C@@H](CCCNC(=N)N)C(=O)NCC(=O)NCC(=O)N[C@@H](Cc1c[nH]c2ccccc12)C(=O)N[C@@H](CCC(N)=O)C(=O)N1CCC[C@H]1C(=O)N[C@H]1CSSC[C@@H](C(=O)N[C@@H](Cc2c[nH]c3ccccc23)C(=O)N[C@@H](CC(=O)O)C(=O)N2CCC[C@H]2C(=O)NCC(=O)NCC(=O)NCC(=O)N[C@@H](CCCCN)C(N)=O)NC(=O)[C@H](Cc2ccccc2)NC(=O)[C@H]([C@@H](C)O)NC(=O)[C@H](Cc2c[nH]c3ccccc23)NC(=O)[C@H](CO)NC(=O)[C@H](CCC(=O)O)NC(=O)[C@H](Cc2c[nH]c3ccccc23)NC(=O)[C@@H]2CCCN2C1=O
B16: Seq022-P (peptide)
peptide: H-RGWQPCPWESWTFCWDPGGGK-NH2
modifications: disulfide 6-14
B17: Seq005-P (peptide)
peptide: Ac-WQPCPAESWTFCWDPGGGK-NH2
modifications: disulfide 4-12
SMILES: CC(=O)N[C@@H](Cc1c[nH]c2ccccc12)C(=O)N[C@@H](CCC(N)=O)C(=O)N1CCC[C@H]1C(=O)N[C@H]1CSSC[C@@H](C(=O)N[C@@H](Cc2c[nH]c3ccccc23)C(=O)N[C@@H](CC(=O)O)C(=O)N2CCC[C@H]2C(=O)NCC(=O)NCC(=O)NCC(=O)N[C@@H](CCCCN)C(N)=O)NC(=O)[C@H](Cc2ccccc2)NC(=O)[C@H]([C@@H](C)O)NC(=O)[C@H](Cc2c[nH]c3ccccc23)NC(=O)[C@H](CO)NC(=O)[C@H](CCC(=O)O)NC(=O)[C@H](C)NC(=O)[C@@H]2CCCN2C1=O
B18: Seq024-P (peptide)
peptide: Ac-SGSGSGSGWQPCPWESWTFCWDPGGGK-NH2
modifications: disulfide 12-20
B19: Seq017-P (peptide)
peptide: Ac-SGSG[AEEA]WQPCPWESWTFCWDPGGGK-NH2
modifications: disulfide 9-17
B20: Seq047-P (peptide)
peptide: Ac-RRGGWQPC[Hyp]WESWTFCWDPGGGK-NH2
modifications: disulfide 8-16
SMILES: CC(=O)N[C@@H](CCCNC(=N)N)C(=O)N[C@@H](CCCNC(=N)N)C(=O)NCC(=O)NCC(=O)N[C@@H](Cc1c[nH]c2ccccc12)C(=O)N[C@@H](CCC(N)=O)C(=O)N1CCC[C@H]1C(=O)N[C@H]1CSSC[C@@H](C(=O)N[C@@H](Cc2c[nH]c3ccccc23)C(=O)N[C@@H](CC(=O)O)C(=O)N2CCC[C@H]2C(=O)NCC(=O)NCC(=O)NCC(=O)N[C@@H](CCCCN)C(N)=O)NC(=O)[C@H](Cc2ccccc2)NC(=O)[C@H]([C@@H](C)O)NC(=O)[C@H](Cc2c[nH]c3ccccc23)NC(=O)[C@H](CO)NC(=O)[C@H](CCC(=O)O)NC(=O)[C@H](Cc2c[nH]c3ccccc23)NC(=O)[C@@H]2C[C@@H](O)CN2C1=O
B21: Seq031-P (peptide)
peptide: Ac-S(αGalNAc)[AEEA]WQPCPWESWTFCWDPGGGK-NH2
modifications: disulfide 6-14
SMILES: CC(=O)N[C@H]1[C@@H](OC[C@H](NC(C)=O)C(=O)NCCOCCOCC(=O)N[C@@H](Cc2c[nH]c3ccccc23)C(=O)N[C@@H](CCC(N)=O)C(=O)N2CCC[C@H]2C(=O)N[C@H]2CSSC[C@@H](C(=O)N[C@@H](Cc3c[nH]c4ccccc34)C(=O)N[C@@H](CC(=O)O)C(=O)N3CCC[C@H]3C(=O)NCC(=O)NCC(=O)NCC(=O)N[C@@H](CCCCN)C(N)=O)NC(=O)[C@H](Cc3ccccc3)NC(=O)[C@H]([C@@H](C)O)NC(=O)[C@H](Cc3c[nH]c4ccccc34)NC(=O)[C@H](CO)NC(=O)[C@H](CCC(=O)O)NC(=O)[C@H](Cc3c[nH]c4ccccc34)NC(=O)[C@@H]3CCCN3C2=O)O[C@H](CO)[C@H](O)[C@@H]1O
B22: Seq032-P (peptide)
peptide: Ac-WQPC[Hyp]WESWTFCWDPGGGK-NH2
modifications: disulfide 4-12
notes: also called Ac-WQPC*-Hypt4-WESWTFC*WDPGGGK-NH2
B23: Seq025-P (peptide)
peptide: Ac-KKGWQPCPWESWTFCWDPGGGK-NH2
modifications: disulfide 7-15
B24: Seq015-P (peptide)
peptide: Ac-GGRGWQPCPWESWTFCWDPGGGK-NH2
modifications: disulfide 8-16
B25: Seq014-P (peptide)
peptide: Ac-GPPGWQPCPWESWTFCWDPGGGK-NH2
modifications: disulfide 8-16

What follows are binders tested against DDE (assay: competition fluorescence polarization: unlabeled peptide against Seq000-CF5 tracer on DDE; n = 2).

Rel IC50 (ratio to the reference peptide)	Binder
0.559	B1
0.622	B2
0.616	B3
0.428	B4

Target: T1, DDE
Test: direct binding fluorescence polarization: CF5-labeled peptide titrated with DDE; n = 2

Kd [nM]	Binder
710	B5
760	B6
570	B7
530	B8
310	B9
520	B10
170	B11
220	B12

Target: T1, DDE
Test: competition fluorescence polarization: unlabeled peptide against Seq000-CF5 tracer on DDE; n = 2

Rel IC50	Binder
0.47 ratio to the reference peptide	B13
0.595 ratio to the reference peptide	B14
0.125 ratio to the reference peptide	B15
0.511 ratio to the reference peptide	B16
0.875 ratio to the reference peptide	B17
0.527 ratio to the reference peptide	B18
0.714 ratio to the reference peptide	B19
0.75 ratio to the reference peptide	B20
1.15 ratio to the reference peptide	B21
0.55 ratio to the reference peptide	B22
0.357 ratio to the reference peptide	B23
0.37 ratio to the reference peptide	B24
0.235 ratio to the reference peptide	B25
